In publication PMC9418332, “Perforin-2 clockwise hand-over-hand pre-pore to pore transition mechanism” (Nature Communications, 2022):

Target: the molecule itself
Assay: high-speed atomic force microscopy (HS-AFM); pre-pore rings on supported E. coli lipid bilayer, buffer acidified with HCl to ~pH 4.0 in the fluid cell; imaging at 200 ms temporal resolution, room temperature; pre-pore ring openings and pore arcs

B1: Ectodomain of mPFN2 (Perforin-2) (domain or fragment, mouse (printed as mPFN2), UniProt A1L314 20-652, looked up)
chain: DKPLGETGTTGFQICKNALKLPVLEVLPGGGWDNLRNVDMGRVMDLTYTNCKTTEDGQYIIPDEVYTIPQKESNLEMNSEVLESWMNYQSTTSLSINTELALFSRVNGKFSTEFQRMKTLQVKDQAVTTRVQVRNRIYTVKTTPTSELSLGFTKALMDICDQLEKNQTKMATYLAELLILNYGTHVITSVDAGAALVQEDHVRSSFLLDNQNSQNTVTASAGIAFLNIVNFKVETDYISQTSLTKDYLSNRTNSRVQSFGGVPFYPGITLETWQKGITNHLVAIDRAGLPLHFFIKPDKLPGLPGPLVKKLSKTVETAVRHYYTFNTHPGCTNVDSPNFNFQANMDDDSCDAKVTNFTFGGVYQECTELSGDVLCQNLEQKNLLTGDFSCPPGYSPVHLLSQTHEEGYSRLECKKKCTLKIFCKTVCEDVFRVAKAEFRAYWCVAAGQVPDNSGLLFGGVFTDKTINPMTNAQSCPAGYIPLNLFESLKVCVSLDYELGFKFSVPFGGFFSCIMGNPLVNSDTAKDVRAPSLKKCPGGFSQHLAVISDGCQVSYCVKAGIFTGGSLLPVRLPPYTKPPLMSQVATNTVIVTNSETARSWIKDPQTNQWKLGEPLELRRAMTVIHGDSNGMSGG
notes: Perforin-2 (PFN2, MPEG1), mouse (printed as mPFN2), ectodomain, UniProt A1L314 residues 20-652; Applied as monomers (0.043 mg/ml) and self-assembles on the support; The 1D4 tag is inferred from the resin; also called MPEG1; source: HEK293T or HEK293S cells, transient transfection; purified from the media using anti-1D4 antibody-coupled agarose resin
stoichiometry N: 16 subunits
